In publication PMC9482650, “Quantitative fragmentomics allow affinity mapping of interactomes” (Nature Communications, 2022):

target: T1, APBA2_2, Q99767; experiment: holdup assay; set-up: key: below the threshold = too weak to quantify, mostly under pKd 3.1 to 4; settings: plain residues with an end cap or a label only (N-terminal biotin on a linker: ado-ado)
T1 sequence (Q99767 654-744, limits assumed, looked up): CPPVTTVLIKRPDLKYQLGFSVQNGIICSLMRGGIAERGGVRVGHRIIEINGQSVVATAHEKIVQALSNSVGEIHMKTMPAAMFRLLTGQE

| Binder | pKd |
| --- | --- |
| GNDPDRGTSI [GRID2, O43424] | below the threshold |
| SGDGKTSVWI [GJC1, P36383] | below the threshold |

target: T2, ARHGAP21, Q5T5U3; experiment: holdup assay; set-up: key: below the threshold = too weak to quantify, mostly under pKd 3.1 to 4; settings: plain residues with an end cap or a label only (N-terminal biotin on a linker: ado-ado)
T2 sequence (Q5T5U3 45-169, limits assumed, looked up): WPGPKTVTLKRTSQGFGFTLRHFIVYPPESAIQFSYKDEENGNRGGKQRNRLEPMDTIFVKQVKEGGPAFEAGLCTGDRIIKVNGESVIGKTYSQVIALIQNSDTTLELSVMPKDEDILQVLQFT

| Binder | pKd |
| --- | --- |
| GNDPDRGTSI [GRID2, O43424] | below the threshold |
| SGDGKTSVWI [GJC1, P36383] | 3.58 |

target: T3, CARD11, Q9BXL7; experiment: holdup assay; set-up: key: below the threshold = too weak to quantify, mostly under pKd 3.1 to 4; settings: plain residues with an end cap or a label only (N-terminal biotin on a linker: ado-ado)
T3 sequence (Q9BXL7 662-765, limits assumed, looked up): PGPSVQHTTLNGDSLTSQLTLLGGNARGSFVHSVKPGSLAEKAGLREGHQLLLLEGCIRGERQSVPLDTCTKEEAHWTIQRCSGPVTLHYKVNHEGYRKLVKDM

| Binder | pKd |
| --- | --- |
| GNDPDRGTSI [GRID2, O43424] | below the threshold |
| SGDGKTSVWI [GJC1, P36383] | below the threshold |

target: T4, DFNB31_1, Q9P202; experiment: holdup assay; set-up: key: below the threshold = too weak to quantify, mostly under pKd 3.1 to 4; settings: plain residues with an end cap or a label only (N-terminal biotin on a linker: ado-ado)
T4 sequence (Q9P202 135-233, limits assumed, looked up): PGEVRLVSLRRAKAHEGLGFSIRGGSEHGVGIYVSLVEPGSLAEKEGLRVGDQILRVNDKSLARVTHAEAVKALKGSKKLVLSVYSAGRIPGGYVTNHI

| Binder | pKd |
| --- | --- |
| GNDPDRGTSI [GRID2, O43424] | 4.46 |
| SGDGKTSVWI [GJC1, P36383] | 3.48 |

target: T5, DFNB31_3, Q9P202; experiment: holdup assay; set-up: key: below the threshold = too weak to quantify, mostly under pKd 3.1 to 4; settings: plain residues with an end cap or a label only (N-terminal biotin on a linker: ado-ado)
T5 sequence (Q9P202 811-907, limits assumed, looked up): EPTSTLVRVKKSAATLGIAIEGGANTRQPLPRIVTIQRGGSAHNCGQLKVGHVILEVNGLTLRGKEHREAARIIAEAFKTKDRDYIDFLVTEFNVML

| Binder | pKd |
| --- | --- |
| GNDPDRGTSI [GRID2, O43424] | below the threshold |
| SGDGKTSVWI [GJC1, P36383] | below the threshold |

target: T6, FRMPD1, Q5SYB0; experiment: holdup assay; set-up: key: below the threshold = too weak to quantify, mostly under pKd 3.1 to 4; settings: plain residues with an end cap or a label only (N-terminal biotin on a linker: ado-ado)
T6 sequence (Q5SYB0 52-145, limits assumed, looked up): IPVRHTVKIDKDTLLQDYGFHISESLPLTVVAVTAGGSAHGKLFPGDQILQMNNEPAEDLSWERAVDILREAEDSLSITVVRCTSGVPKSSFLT

| Binder | pKd |
| --- | --- |
| GNDPDRGTSI [GRID2, O43424] | below the threshold |
| SGDGKTSVWI [GJC1, P36383] | below the threshold |

target: GORASP1, Q9BQQ3; experiment: holdup assay; set-up: key: below the threshold = too weak to quantify, mostly under pKd 3.1 to 4; settings: plain residues with an end cap or a label only (N-terminal biotin on a linker: ado-ado)
Sequence (Q9BQQ3 1-208): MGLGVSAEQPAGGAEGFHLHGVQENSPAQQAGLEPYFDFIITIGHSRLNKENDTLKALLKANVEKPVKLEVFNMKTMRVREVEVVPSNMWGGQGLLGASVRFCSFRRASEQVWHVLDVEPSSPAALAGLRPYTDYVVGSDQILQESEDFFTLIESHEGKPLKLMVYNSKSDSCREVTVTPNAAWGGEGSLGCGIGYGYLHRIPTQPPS

| Binder | pKd |
| --- | --- |
| GNDPDRGTSI [GRID2, O43424] | below the threshold |
| SGDGKTSVWI [GJC1, P36383] | 4.51 |

target: GRIP2_3, Q9C0E4; experiment: holdup assay; set-up: key: below the threshold = too weak to quantify, mostly under pKd 3.1 to 4; settings: plain residues with an end cap or a label only (N-terminal biotin on a linker: ado-ado)
Sequence (Q9C0E4 238-339): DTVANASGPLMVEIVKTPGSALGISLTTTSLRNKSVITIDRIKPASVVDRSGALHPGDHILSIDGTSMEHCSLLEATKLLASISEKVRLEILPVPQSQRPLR

| Binder | pKd |
| --- | --- |
| GNDPDRGTSI [GRID2, O43424] | below the threshold |
| SGDGKTSVWI [GJC1, P36383] | below the threshold |

target: GRIP2_7, Q9C0E4; experiment: holdup assay; set-up: key: below the threshold = too weak to quantify, mostly under pKd 3.1 to 4; settings: plain residues with an end cap or a label only (N-terminal biotin on a linker: ado-ado)
Sequence (Q9C0E4 934-1023): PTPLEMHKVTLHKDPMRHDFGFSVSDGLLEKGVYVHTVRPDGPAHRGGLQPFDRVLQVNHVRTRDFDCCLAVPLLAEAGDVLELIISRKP

| Binder | pKd |
| --- | --- |
| GNDPDRGTSI [GRID2, O43424] | below the threshold |
| SGDGKTSVWI [GJC1, P36383] | 4.37 |

target: T7, HTRA3, P83110; experiment: holdup assay; set-up: key: below the threshold = too weak to quantify, mostly under pKd 3.1 to 4; settings: plain residues with an end cap or a label only (N-terminal biotin on a linker: ado-ado)
T7 sequence (P83110 354-453, limits assumed, looked up): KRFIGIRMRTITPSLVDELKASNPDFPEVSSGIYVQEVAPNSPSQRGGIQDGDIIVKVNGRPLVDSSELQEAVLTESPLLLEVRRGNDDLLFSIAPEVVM

| Binder | pKd |
| --- | --- |
| GNDPDRGTSI [GRID2, O43424] | below the threshold |
| SGDGKTSVWI [GJC1, P36383] | 5.8 |

target: LIMK2, P53671; experiment: holdup assay; set-up: key: below the threshold = too weak to quantify, mostly under pKd 3.1 to 4; settings: plain residues with an end cap or a label only (N-terminal biotin on a linker: ado-ado)
Sequence (P53671 143-248): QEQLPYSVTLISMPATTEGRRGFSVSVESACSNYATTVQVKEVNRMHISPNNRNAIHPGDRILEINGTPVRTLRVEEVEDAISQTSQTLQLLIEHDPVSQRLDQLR

| Binder | pKd |
| --- | --- |
| GNDPDRGTSI [GRID2, O43424] | below the threshold |
| SGDGKTSVWI [GJC1, P36383] | below the threshold |

target: MAGI1_2, Q96QZ7; experiment: holdup assay; set-up: key: below the threshold = too weak to quantify, mostly under pKd 3.1 to 4; settings: plain residues with an end cap or a label only (N-terminal biotin on a linker: ado-ado)
Sequence (Q96QZ7 456-580): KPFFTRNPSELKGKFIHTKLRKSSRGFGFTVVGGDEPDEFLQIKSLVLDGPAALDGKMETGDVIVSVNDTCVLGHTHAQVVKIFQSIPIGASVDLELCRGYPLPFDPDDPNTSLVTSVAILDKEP

| Binder | pKd |
| --- | --- |
| GNDPDRGTSI [GRID2, O43424] | below the threshold |
| SGDGKTSVWI [GJC1, P36383] | below the threshold |

target: NHERF4_2, Q86UT5; experiment: holdup assay; set-up: key: below the threshold = too weak to quantify, mostly under pKd 3.1 to 4; settings: plain residues with an end cap or a label only (N-terminal biotin on a linker: ado-ado)
Sequence (Q86UT5 220-308): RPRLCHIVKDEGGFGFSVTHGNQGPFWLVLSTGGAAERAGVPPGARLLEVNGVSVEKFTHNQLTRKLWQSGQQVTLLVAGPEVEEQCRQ

| Binder | pKd |
| --- | --- |
| GNDPDRGTSI [GRID2, O43424] | below the threshold |
| SGDGKTSVWI [GJC1, P36383] | below the threshold |

target: T8, PARD3B_1, Q8TEW8; experiment: holdup assay; set-up: key: below the threshold = too weak to quantify, mostly under pKd 3.1 to 4; settings: plain residues with an end cap or a label only (N-terminal biotin on a linker: ado-ado)
T8 sequence (Q8TEW8 196-299, limits assumed, looked up): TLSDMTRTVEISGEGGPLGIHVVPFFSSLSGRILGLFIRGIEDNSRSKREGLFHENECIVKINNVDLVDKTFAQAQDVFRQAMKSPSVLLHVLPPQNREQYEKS

| Binder | pKd |
| --- | --- |
| GNDPDRGTSI [GRID2, O43424] | below the threshold |
| SGDGKTSVWI [GJC1, P36383] | 4.77 |

target: PARD3_3, Q8TEW0; experiment: holdup assay; set-up: key: below the threshold = too weak to quantify, mostly under pKd 3.1 to 4; settings: plain residues with an end cap or a label only (N-terminal biotin on a linker: ado-ado)
Sequence (Q8TEW0 582-685): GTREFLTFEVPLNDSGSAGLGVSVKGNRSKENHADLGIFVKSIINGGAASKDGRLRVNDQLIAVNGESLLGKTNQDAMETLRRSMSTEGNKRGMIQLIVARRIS

| Binder | pKd |
| --- | --- |
| GNDPDRGTSI [GRID2, O43424] | below the threshold |
| SGDGKTSVWI [GJC1, P36383] | 4.62 |

target: T9, PDZD7_3, Q9H5P4; experiment: holdup assay; set-up: key: below the threshold = too weak to quantify, mostly under pKd 3.1 to 4; settings: plain residues with an end cap or a label only (N-terminal biotin on a linker: ado-ado)
T9 sequence (Q9H5P4 857-944, limits assumed, looked up): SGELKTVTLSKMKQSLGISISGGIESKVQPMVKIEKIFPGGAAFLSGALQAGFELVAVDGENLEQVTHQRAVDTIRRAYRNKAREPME

| Binder | pKd |
| --- | --- |
| GNDPDRGTSI [GRID2, O43424] | 4.1 |
| SGDGKTSVWI [GJC1, P36383] | below the threshold |

target: SCRIB_1, Q14160; experiment: holdup assay; set-up: key: below the threshold = too weak to quantify, mostly under pKd 3.1 to 4; settings: plain residues with an end cap or a label only (N-terminal biotin on a linker: ado-ado)
Sequence (Q14160 718-814): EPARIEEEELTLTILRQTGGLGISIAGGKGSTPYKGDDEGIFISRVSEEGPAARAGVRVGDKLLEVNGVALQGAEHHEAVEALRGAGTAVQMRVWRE

| Binder | pKd |
| --- | --- |
| GNDPDRGTSI [GRID2, O43424] | below the threshold |
| SGDGKTSVWI [GJC1, P36383] | 3.94 |

target: SCRIB_3, Q14160; experiment: holdup assay; set-up: key: below the threshold = too weak to quantify, mostly under pKd 3.1 to 4; settings: plain residues with an end cap or a label only (N-terminal biotin on a linker: ado-ado)
Sequence (Q14160 999-1103): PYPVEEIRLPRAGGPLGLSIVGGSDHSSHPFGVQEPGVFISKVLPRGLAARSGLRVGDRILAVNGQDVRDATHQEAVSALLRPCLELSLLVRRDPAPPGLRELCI

| Binder | pKd |
| --- | --- |
| GNDPDRGTSI [GRID2, O43424] | 4.29 |
| SGDGKTSVWI [GJC1, P36383] | 4.21 |

target: T10, SIPA1L2, Q9P2F8; experiment: holdup assay; set-up: key: below the threshold = too weak to quantify, mostly under pKd 3.1 to 4; settings: plain residues with an end cap or a label only (N-terminal biotin on a linker: ado-ado)
T10 sequence (Q9P2F8 945-1036, limits assumed, looked up): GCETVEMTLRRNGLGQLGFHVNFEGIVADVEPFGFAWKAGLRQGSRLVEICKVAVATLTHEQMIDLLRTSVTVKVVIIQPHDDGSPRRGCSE

| Binder | pKd |
| --- | --- |
| GNDPDRGTSI [GRID2, O43424] | below the threshold |
| SGDGKTSVWI [GJC1, P36383] | below the threshold |

target: T11, SNTA1, Q13424; experiment: holdup assay; set-up: key: below the threshold = too weak to quantify, mostly under pKd 3.1 to 4; settings: plain residues with an end cap or a label only (N-terminal biotin on a linker: ado-ado)
T11 sequence (Q13424 82-180, limits assumed, looked up): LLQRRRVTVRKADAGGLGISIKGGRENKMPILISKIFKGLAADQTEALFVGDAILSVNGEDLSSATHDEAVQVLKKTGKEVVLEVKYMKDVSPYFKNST

| Binder | pKd |
| --- | --- |
| GNDPDRGTSI [GRID2, O43424] | below the threshold |
| SGDGKTSVWI [GJC1, P36383] | below the threshold |

target: T12, SNTG1, Q9NSN8; experiment: holdup assay; set-up: key: below the threshold = too weak to quantify, mostly under pKd 3.1 to 4; settings: plain residues with an end cap or a label only (N-terminal biotin on a linker: ado-ado)
T12 sequence (Q9NSN8 52-150, limits assumed, looked up): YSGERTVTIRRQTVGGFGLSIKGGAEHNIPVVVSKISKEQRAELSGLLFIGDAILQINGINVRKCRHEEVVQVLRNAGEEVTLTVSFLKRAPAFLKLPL

| Binder | pKd |
| --- | --- |
| GNDPDRGTSI [GRID2, O43424] | below the threshold |
| SGDGKTSVWI [GJC1, P36383] | 3.61 |

target: TJP1_2, Q07157; experiment: holdup assay; set-up: key: below the threshold = too weak to quantify, mostly under pKd 3.1 to 4; settings: plain residues with an end cap or a label only (N-terminal biotin on a linker: ado-ado)
Sequence (Q07157 181-274): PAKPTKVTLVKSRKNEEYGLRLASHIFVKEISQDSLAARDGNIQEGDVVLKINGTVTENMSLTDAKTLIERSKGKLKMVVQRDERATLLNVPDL

| Binder | pKd |
| --- | --- |
| GNDPDRGTSI [GRID2, O43424] | below the threshold |
| SGDGKTSVWI [GJC1, P36383] | 5 |

target: TJP2_1, Q9UDY2; experiment: holdup assay; set-up: key: below the threshold = too weak to quantify, mostly under pKd 3.1 to 4; settings: plain residues with an end cap or a label only (N-terminal biotin on a linker: ado-ado)
Sequence (Q9UDY2 24-128): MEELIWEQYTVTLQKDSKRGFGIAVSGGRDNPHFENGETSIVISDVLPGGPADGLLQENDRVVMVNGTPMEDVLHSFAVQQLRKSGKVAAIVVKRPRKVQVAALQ

| Binder | pKd |
| --- | --- |
| GNDPDRGTSI [GRID2, O43424] | below the threshold |
| SGDGKTSVWI [GJC1, P36383] | 4.82 |

target: T13, TJP3_3, O95049; experiment: holdup assay; set-up: key: below the threshold = too weak to quantify, mostly under pKd 3.1 to 4; settings: plain residues with an end cap or a label only (N-terminal biotin on a linker: ado-ado)
T13 sequence (O95049 375-456, limits assumed, looked up): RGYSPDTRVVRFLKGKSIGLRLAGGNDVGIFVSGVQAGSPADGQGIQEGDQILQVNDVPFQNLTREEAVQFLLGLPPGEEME

| Binder | pKd |
| --- | --- |
| GNDPDRGTSI [GRID2, O43424] | below the threshold |
| SGDGKTSVWI [GJC1, P36383] | 4.44 |
